# Reference: patent publication US20040110170A1, “Cloning and characterization of calcitonin gene related peptide receptors” (priority 2002, published 2004)
# Ends that are not written are not given here.
# Key:
# JPr-CGRP receptor = target: T1, JPr-CGRP receptor (Rattus norvegicus, UniProt O89039); assay: Adenylate Cyclase Stimulation assay (cAMP), NIH/3T3 cells stably expressing JPr-CGRP receptor; assay type: cell-based; details: assay not specified
# T1 construct: expressed in transfected cells; pCDL-Srα vector)
# Procedure: The cells were washed with 1 ml of a nutrient deficient DMEM solution (Gibco-BRL, Gaithersburg, Md.) to remove excess radioisotope and incubated for 10 minutes (37° Celsius). […] Peptide was added in 5 μL aliquots to 21 of the 24 wells with three receiving no peptide to serve as a baseline for stimulation. The remaining 21 wells were incubated at 37° Celsius with increasing concentrations of the indicated peptide and the response was measured.
# [1] = target: Skb-CGRP receptor (previously reported human CGRP type 1 receptor, Skb-CGRP-R) (human) (UniProt Q16602); assay: Radioligand binding inhibition; unlabelled CGRP against 50 pM 125I-CGRP on stably transfected NIH/3T3 cells
# [2] = target: JPr-CGRP receptor (rat CGRP receptor, JPr-CGRP-R) (rat) (UniProt O89039); assay: as above
# [3] = tested on: vector control transfected HEK 293 cells; details: cited from earlier work
# T1 sequence (O89039 whole entry): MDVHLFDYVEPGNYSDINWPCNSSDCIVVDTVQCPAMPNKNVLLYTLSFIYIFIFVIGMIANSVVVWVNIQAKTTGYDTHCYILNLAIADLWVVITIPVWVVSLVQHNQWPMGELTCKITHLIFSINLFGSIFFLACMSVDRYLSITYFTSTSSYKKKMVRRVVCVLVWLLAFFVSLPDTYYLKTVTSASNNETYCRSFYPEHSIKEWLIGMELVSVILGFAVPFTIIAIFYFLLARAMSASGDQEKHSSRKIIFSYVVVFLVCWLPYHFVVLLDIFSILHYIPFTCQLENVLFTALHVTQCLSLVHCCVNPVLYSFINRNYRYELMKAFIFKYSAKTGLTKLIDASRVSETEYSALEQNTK
# Chain of Skb-CGRP receptor (previously reported human CGRP type 1 receptor, Skb-CGRP-R) (human) (Q16602 23-461): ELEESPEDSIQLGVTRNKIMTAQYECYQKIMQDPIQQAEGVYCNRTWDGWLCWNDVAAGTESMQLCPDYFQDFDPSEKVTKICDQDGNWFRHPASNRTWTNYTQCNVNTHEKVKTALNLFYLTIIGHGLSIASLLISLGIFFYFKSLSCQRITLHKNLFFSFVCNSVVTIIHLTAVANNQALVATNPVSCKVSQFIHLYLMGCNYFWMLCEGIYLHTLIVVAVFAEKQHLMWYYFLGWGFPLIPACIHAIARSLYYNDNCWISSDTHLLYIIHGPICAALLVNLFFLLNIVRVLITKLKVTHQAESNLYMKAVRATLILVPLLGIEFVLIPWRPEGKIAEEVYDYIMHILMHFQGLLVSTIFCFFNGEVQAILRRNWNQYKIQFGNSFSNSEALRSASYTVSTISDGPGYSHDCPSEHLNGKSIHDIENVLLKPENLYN
# Chain of JPr-CGRP receptor (rat CGRP receptor, JPr-CGRP-R) (rat) (O89039 whole entry): as the sequence (O89039 whole entry) above
Substance,response of the JPr-CGRP receptor to related peptides (JPr-CGRP receptor),also measured
Adrenomedullin: peptide related to CGRP,shows response,–
"Amylin: peptide related to CGRP, tested on the receptor (KCNTATCATQRLANFLVHSSNNFGAILSSTNVGSNTY; not fully specified (C-terminus, bridges); cysteine pairing not given here; UniProt P10997 34-70, looked up)",shows response,–
Calcitonin,shows response,–
Calcitonin Gene Related Peptide (CGRP),–,IC50 [1]: 501 pM; IC50 [2]: 39.8 pM
"human Calcitonin: human Calcitonin, has cross reactivity with the CGRP receptor (CGNLSTCMLGTYTQDFNKFHTFPQTAIGVGAP; not fully specified (C-terminus, bridges); ends and bridges not checked; UniProt P01258 85-116, looked up)",–,cAMP accumulation as % of the maximum cAMP induced by CGRP in Skb-CGRP-R transfected cells [3]: 75%
